# Results from the supplement of paper PMC9112550, “Optimization of the antimicrobial peptide Bac7 by deep mutational scanning” (BMC Biology, 2022).
# Tested on: Escherichia coli TOP10
# Test: shrunken log2 fold change of peptide-encoding DNA abundance (4.5 h post-induction vs induction); higher = less antimicrobial activity (less host growth inhibition)
# Conditions: time post-induction: 4.5 h; library: site-saturation at positions 5, 18, 19, 20
# 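Further: peptides expressed intracellularly from a pBAD plasmid library in pooled LB shake-flask culture, induced with 0.3% L-arabinose, DNA abundance read by NGS, three biological replicates, DESeq2 with apeglm shrinkage.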
row,Sequence,shrunken log2 fold change
1,RRIRNRPPRLPRPRPRPSYAPRP,-0.387
2,RRIRMRPPRLPRPRPRPNRHPRP,0.0213
3,RRIRHRPPRLPRPRPRPPQEPRP,-0.0115
4,RRIRCRPPRLPRPRPRPIQLPRP,-0.0847
5,RRIRNRPPRLPRPRPRPAKFPRP,-0.179
6,RRIRMRPPRLPRPRPRPSIDPRP,0.789
7,RRIRVRPPRLPRPRPRPFHYPRP,-0.318
8,RRIRFRPPRLPRPRPRPYRMPRP,-0.571
9,RRIRYRPPRLPRPRPRPIPRPRP,0.0268
10,RRIRRRPPRLPRPRPRPWMNPRP,-0.0882
11,RRIRKRPPRLPRPRPRPMNAPRP,0.228
12,RRIRSRPPRLPRPRPRPHCRPRP,-0.172
13,RRIRWRPPRLPRPRPRPRMEPRP,0.439
14,RRIRFRPPRLPRPRPRPAGTPRP,-0.0142
15,RRIRLRPPRLPRPRPRPSHEPRP,0.031
16,RRIRIRPPRLPRPRPRPYNAPRP,-0.734
17,RRIRHRPPRLPRPRPRPKITPRP,-0.913
18,RRIRMRPPRLPRPRPRPVILPRP,-0.826
19,RRIRSRPPRLPRPRPRPQELPRP,-0.107
20,RRIRVRPPRLPRPRPRPEDCPRP,-0.0557
21,RRIRMRPPRLPRPRPRPISNPRP,-0.0517
22,RRIRARPPRLPRPRPRPDHMPRP,-0.328

row,Sequence,shrunken log2 fold change
1,RRIRDRPPRLPRPRPRPYGYPRP,-0.575
2,RRIRRRPPRLPRPRPRPFFVPRP,0.283
3,RRIRKRPPRLPRPRPRPIFKPRP,0.307
4,RRIRFRPPRLPRPRPRPQQPPRP,-0.00359
5,RRIRVRPPRLPRPRPRPLMIPRP,-0.361
6,RRIRSRPPRLPRPRPRPIHVPRP,-0.154
7,RRIRDRPPRLPRPRPRPKSPPRP,0.0198
8,RRIRARPPRLPRPRPRPFEQPRP,-0.072
9,RRIRHRPPRLPRPRPRPRNQPRP,0.0527
10,RRIRWRPPRLPRPRPRPKNHPRP,-0.248
11,RRIRDRPPRLPRPRPRPTTVPRP,0.258
12,RRIRWRPPRLPRPRPRPLGAPRP,0.483
13,RRIRPRPPRLPRPRPRPFEVPRP,0.0802
14,RRIRARPPRLPRPRPRPAYGPRP,0.0552
15,RRIRYRPPRLPRPRPRPRFWPRP,0.184
16,RRIRDRPPRLPRPRPRPSGWPRP,0.558
17,RRIRRRPPRLPRPRPRPNITPRP,-0.128
18,RRIRPRPPRLPRPRPRPMTQPRP,0.272
19,RRIRQRPPRLPRPRPRPRNWPRP,-0.0692
20,RRIRKRPPRLPRPRPRPQLTPRP,0.14
21,RRIRGRPPRLPRPRPRPRPYPRP,0.246
22,RRIRVRPPRLPRPRPRPTDLPRP,-0.101

row,Sequence,shrunken log2 fold change
1,RRIRARPPRLPRPRPRPHVTPRP,0.0281
2,RRIRFRPPRLPRPRPRPNYVPRP,-0.492
3,RRIRDRPPRLPRPRPRPATHPRP,0.335
4,RRIRKRPPRLPRPRPRPHYGPRP,-0.0816
5,RRIRQRPPRLPRPRPRPWHRPRP,-0.0346
6,RRIRTRPPRLPRPRPRPWGYPRP,-0.0354
7,RRIRGRPPRLPRPRPRPSTKPRP,0.261
8,RRIRARPPRLPRPRPRPPCAPRP,0.598
9,RRIRARPPRLPRPRPRPNLRPRP,0.022
10,RRIRLRPPRLPRPRPRPMRYPRP,0.0322
11,RRIRPRPPRLPRPRPRPKDWPRP,0.342
12,RRIRPRPPRLPRPRPRPWYNPRP,-0.184
13,RRIRRRPPRLPRPRPRPNYCPRP,-0.25
14,RRIRKRPPRLPRPRPRPSCVPRP,0.311
15,RRIRIRPPRLPRPRPRPKNVPRP,-0.139
16,RRIRIRPPRLPRPRPRPPIHPRP,-0.614
17,RRIRARPPRLPRPRPRPTPYPRP,-0.0244
18,RRIRHRPPRLPRPRPRPGQWPRP,0.318
19,RRIRWRPPRLPRPRPRPFQRPRP,0.00938
20,RRIRHRPPRLPRPRPRPWDIPRP,0.0726
21,RRIRLRPPRLPRPRPRPNNDPRP,-0.763
22,RRIRVRPPRLPRPRPRPRNPPRP,0.148

row,Sequence,shrunken log2 fold change
1,RRIRVRPPRLPRPRPRPGKVPRP,-0.272
2,RRIRTRPPRLPRPRPRPNSYPRP,-0.188
3,RRIRQRPPRLPRPRPRPPEVPRP,0.0121
4,RRIRDRPPRLPRPRPRPKKFPRP,0.117
5,RRIRCRPPRLPRPRPRPHIAPRP,-0.413
6,RRIRFRPPRLPRPRPRPHNSPRP,-0.194
7,RRIRGRPPRLPRPRPRPYEVPRP,0.0996
8,RRIRKRPPRLPRPRPRPQNWPRP,0.508
9,RRIRPRPPRLPRPRPRPAQVPRP,-0.0714
10,RRIRSRPPRLPRPRPRPSTGPRP,-0.417
11,RRIRQRPPRLPRPRPRPIRSPRP,-0.0132
12,RRIRHRPPRLPRPRPRPGLPPRP,0.118
13,RRIRFRPPRLPRPRPRPLRPPRP,0.932
14,RRIRVRPPRLPRPRPRPPKLPRP,0.0622
15,RRIRKRPPRLPRPRPRPQQHPRP,0.138
16,RRIRPRPPRLPRPRPRPIHTPRP,-0.177
17,RRIRFRPPRLPRPRPRPIPKPRP,0.179
18,RRIRIRPPRLPRPRPRPAPNPRP,0.0272
19,RRIRNRPPRLPRPRPRPIFVPRP,-0.0459
20,RRIRQRPPRLPRPRPRPSDGPRP,-0.0586
21,RRIRKRPPRLPRPRPRPCFSPRP,-0.51
22,RRIRSRPPRLPRPRPRPVYPPRP,-0.11

row,Sequence,shrunken log2 fold change
1,RRIRWRPPRLPRPRPRPHQYPRP,-0.29
2,RRIRKRPPRLPRPRPRPSCDPRP,0.141
3,RRIRHRPPRLPRPRPRPVASPRP,-0.122
4,RRIRGRPPRLPRPRPRPGKFPRP,0.427
5,RRIRLRPPRLPRPRPRPLDIPRP,-0.15
6,RRIRYRPPRLPRPRPRPIGFPRP,0.0062
7,RRIRQRPPRLPRPRPRPMIQPRP,0.0718
8,RRIRVRPPRLPRPRPRPGYQPRP,-0.00841
9,RRIRFRPPRLPRPRPRPNWTPRP,-0.00237
10,RRIRLRPPRLPRPRPRPGSPPRP,0.475
11,RRIRDRPPRLPRPRPRPLMVPRP,-0.186
12,RRIRLRPPRLPRPRPRPPRKPRP,0.659
13,RRIRERPPRLPRPRPRPKDTPRP,-0.115
14,RRIRDRPPRLPRPRPRPLLGPRP,0.356
15,RRIRNRPPRLPRPRPRPSTKPRP,-0.0203
16,RRIRWRPPRLPRPRPRPMTFPRP,-0.108
17,RRIRHRPPRLPRPRPRPDQYPRP,0.0188
18,RRIRHRPPRLPRPRPRPCSGPRP,-0.0968
19,RRIRCRPPRLPRPRPRPSESPRP,0.258
20,RRIRERPPRLPRPRPRPYIIPRP,-0.837
21,RRIRTRPPRLPRPRPRPECVPRP,0.148
